From patent publication US20240336907A1, “NOVEL ENDO-ß-N-ACETYLGLUCOSAMINIDASE” (priority 2020, published 2024)
Substitutions are numbered along the chain they refer to. In names and notes the source's numbering stands.

B1: Endo-Si T190Q (protein)
chain: MNKRLLVKRTFGCVCAAAILGVAPLSHPTIVEAREELKMPNGLEQSIADVEAKIDALTYLSKNSKDEFKHSMYEIPSNREHKPVSPKQALQNAKKADAQAERLAKMTIPKKEELKALEGPLYGGYFRTWQDKTSDPTETNKVNSFGELPKEVDLAFVFHDYTKDYSLFWEELATKQVPKLNKQGTRVIRQIPWRFLSGADHSDISADKEKFPNTEAGNKALAKAIVDEYVYKYNLDGLDIDIERDSVPKVNDKEDPEALARTVEVFKEIGKLIGANGADKSRLLIMDTTYTAEENPLIKETAQYLNLLLVQVYGFSGENGNYLHHKNILDETSSMEGRWQGYSKYIRPEQYMVGFSFYEEKDFNNRWKDINEEDPSDPHIGEKIQGTRAERYAKWQPKTGGLKGGLFSYAIDRDGVAQPKQKTEHPELDKIVKSEYKVSKALKKLMMTDDQYQPIDQSDFPDKALRESIIKQVGTRRGDLERFKGTLRLDNPEIKDLTGLNKLKRVAKLELINLPKITKIDKDDLPQNLKPLTDNQKSNLEIKGTYDDSKLYKDIPAFDLVISGLSGLESLDISGHQRDTLSGIDASTLPSLKAINISDNHFDLAQGTENRHILDTILATLAKNGASTASFDKQKPKGLYPESYSTAPLHLQVGQGKINVIDDLIFGTRTNQNTLINTENDFEAYKEQTIQGKPFIAPDYLYDNFKVSYKEYSASIVDSTLAETTDKTIDTAKAETYQVTVSNKDGKTVHSVKVIVGDEKPMMVNLAQDAKIIGTDNMTQSAKVFDGQKDQFLLSWNKDSSVIFELKTPGTAKHWRFFDDGKNDSVTLSVFKGDASNFETEKDKAENWVEITKDSRKNDDKVFSSPLEVDNAKYLKVTIKKEAKYIYFNELQILGYPGVVAKKTADDLRPTEADKSDDKSDKNDTEAK
modifications: Amino acid sequence of Endo-Si T190Q
B2: Endo-Si D241M (protein)
chain: B1 chain with Q190T, D241M
modifications: Amino acid sequence of Endo-Si D241M
B3: Endo-Si T190Q/D241M (protein)
chain: B1 chain with D241M
modifications: Amino acid sequence of Endo-Si T190Q/D241M
B4: Endo-Si D241M/E360Q (protein)
chain: B1 chain with Q190T, D241M, E360Q
modifications: Amino acid sequence of Endo-Si D241M/E360Q
B5: Endo-Si D241Q/Q311L (protein)
chain: B1 chain with Q190T, D241Q, Q311L
modifications: Amino acid sequence of Endo-Si D241Q/Q311L
B6: Endo-Si T190Q/D241Q (protein)
chain: B1 chain with D241Q
modifications: Amino acid sequence of Endo-Si T190Q/D241Q
B7: Endo-Si D241Q (protein)
chain: B1 chain with Q190T, D241Q
modifications: Amino acid sequence of Endo-Si D241Q
B8: Endo-Si D241Q/E360Q (protein)
chain: B1 chain with Q190T, D241Q, E360Q
modifications: Amino acid sequence of Endo-Si D241Q/E360Q
B9: Endo-Si D241M/Q311L (protein)
chain: B1 chain with Q190T, D241M, Q311L
modifications: Amino acid sequence of Endo-Si D241M/Q311L

The molecules below were run on (Fucα1,6)GlcNAc-mAb2 (assay: Transglycosylation activity with sugar chain oxazoline [N3-PEG(3)]-MSG1(9)-Ox as donor). Conditions: 1 h; donor [N3-PEG(3)]-MSG1(9)-Ox (8 eq.), enzyme 1.25 μg, 28° C., pH 7.5.
Assay type: biochemical
Protocol: Transglycosylation activity was evaluated as follows. […] A sample was taken from each of the reaction solutions at 1, 2, 4, 6, and 24 hours after initiation of the reaction and analyzed for protein by a fully automated electrophoresis system as mentioned above. In the chromatogram obtained, an unreacted product and transglycosylated molecule, mAb2-(MSG1-N3)2 were confirmed as discrete peaks. The transglycosylation rate was calculated based on the peak-area ratio between the unreacted product and the transglycosylated molecule in accordance with the following expression.
Transglycosylation rate (%)=[[peak area of mAb2-(MSG1-N3)2-derived H chain]/{[peak area of (Fucα1,6)GlcNAc-mAb2-derived H chain]+[peak area of mAb2-(MSG1-N3)2-derived H chain]}]×100
Similarly, the transglycosylation rates of individual Endo-Si mutant enzymes at each time period for a reaction were calculated (Table 5).

Point of comparison: B8, Transglycosylation rate 73.5%. Against it:
- B1 — higher, 97.2%
- B2 — higher, 98.8%
- B3 — lower, 43.5%
- B4 — higher, 99.1%
- B5 — lower, 5.7%
- B6 — lower, 26.6%
- B7 — higher, 75.2%
- B9 — lower, 31.8%

Same assay, conditions: 2 h; donor [N3-PEG(3)]-MSG1(9)-Ox (8 eq.), enzyme 1.25 μg, 28° C., pH 7.5

Point of comparison: B4, Transglycosylation rate 99.0%. Against it:
- B1 — lower, 91.8%
- B2 — lower, 98.9%
- B3 — lower, 64.1%
- B5 — lower, 11.6%
- B6 — lower, 48.4%
- B7 — lower, 97.0%
- B8 — lower, 96.8%
- B9 — lower, 59.1%

Same assay, conditions: 4 h; donor [N3-PEG(3)]-MSG1(9)-Ox (8 eq.), enzyme 1.25 μg, 28° C., pH 7.5

Point of comparison: B3, Transglycosylation rate 92.7%. Against it:
- B1 — lower, 81.8%
- B2 — higher, 97.4%
- B4 — higher, 96.2%
- B5 — lower, 27.4%
- B6 — lower, 83.3%
- B7 — higher, 99.1%
- B8 — higher, 99.0%
- B9 — higher, 95.9%

Same assay, conditions: 6 h; donor [N3-PEG(3)]-MSG1(9)-Ox (8 eq.), enzyme 1.25 μg, 28° C., pH 7.5

Point of comparison: B3, Transglycosylation rate 98.7%. Against it:
- B1 — lower, 76.7%
- B2 — lower, 97.5%
- B4 — lower, 95.5%
- B5 — lower, 44.4%
- B6 — lower, 96.1%
- B7 — higher, 99.6%
- B8 — higher, 99.6%
- B9 — higher, 99.5%

Same assay, conditions: 24 h; donor [N3-PEG(3)]-MSG1(9)-Ox (8 eq.), enzyme 1.25 μg, 28° C., pH 7.5

Point of comparison: B3, Transglycosylation rate 99.6%. Against it:
- B1 — lower, 32.6%
- B2 — lower, 75.0%
- B4 — lower, 75.9%
- B5 — lower, 99.3%
- B6 — the same, 99.6%
- B7 — lower, 98.8%
- B8 — lower, 98.9%
- B9 — higher, 99.9%

What follows are molecules tested on (Fucα1,6)GlcNAc-mAb2 (assay: Transglycosylation activity with SGP as donor, in combination with Endo-M N175Q). Conditions: 2 h; donor SGP (50 eq.), Endo-M N175Q 2.5 mU, Endo-Si enzyme 10 μg, 23° C., pH 7.5.
Assay type: biochemical
Protocol: Transglycosylation activity was evaluated as follows. A 50 mM (sodium) phosphate buffer (pH 7.5) solution (17 μL) containing (Fucα1,6)GlcNAc-mAb2 (0.5 mg), SGP (0.485 mg (50 eq.)), Endo-M N175Q (manufactured by Tokyo Kasei Kogyo Co., Ltd.) (2.5 mU) and each of various Endo-Si mutant enzymes (10 μg), was prepared and incubated at 23° C. A sample was taken from each of the reaction solutions at 2, 4, 6, 24, and 48 hours after initiation of the reaction and analyzed for protein by a fully automated electrophoresis system as mentioned above. In the chromatogram obtained, an unreacted product and a transglycosylated molecule, mAb2-(SG)2 are confirmed as discrete peaks. The transglycosylation rates were obtained based on the peak area ratio between the unreacted product and the transglycosylated molecule in accordance with the following expression.
Similarly, transglycosylation rates of individual Endo-Si mutant enzymes at each time period of a reaction were calculated (Table 6).

Point of comparison: B3, Transglycosylation rate 3.1%. Against it:
- B1 — higher, 13.3%
- B2 — higher, 12.8%
- B4 — higher, 11.9%
- B5 — lower, 2.6%
- B6 — higher, 4.9%
- B7 — higher, 15.9%
- B8 — higher, 8.9%
- B9 — higher, 6.4%

Same assay, conditions: 4 h; donor SGP (50 eq.), Endo-M N175Q 2.5 mU, Endo-Si enzyme 10 μg, 23° C., pH 7.5

Point of comparison: B8, Transglycosylation rate 20.0%. Against it:
- B1 — higher, 27.8%
- B2 — higher, 27.9%
- B3 — lower, 6.4%
- B4 — higher, 27.7%
- B5 — lower, 5.6%
- B6 — lower, 10.6%
- B7 — higher, 35.6%
- B9 — lower, 13.7%

Same assay, conditions: 6 h; donor SGP (50 eq.), Endo-M N175Q 2.5 mU, Endo-Si enzyme 10 μg, 23° C., pH 7.5

Point of comparison: B4, Transglycosylation rate 42.7%. Against it:
- B1 — higher, 43.2%
- B2 — lower, 40.5%
- B3 — lower, 13.8%
- B5 — lower, 8.2%
- B6 — lower, 21.4%
- B7 — higher, 52.3%
- B8 — lower, 30.3%
- B9 — lower, 24.1%

Same assay, conditions: 24 h; donor SGP (50 eq.), Endo-M N175Q 2.5 mU, Endo-Si enzyme 10 μg, 23° C., pH 7.5

Point of comparison: B1, Transglycosylation rate 93.8%. Against it:
- B2 — higher, 96.5%
- B3 — lower, 50.7%
- B4 — higher, 98.0%
- B5 — lower, 48.6%
- B6 — lower, 71.5%
- B7 — higher, 98.1%
- B8 — higher, 94.4%
- B9 — lower, 79.7%

Same assay, conditions: 48 h; donor SGP (50 eq.), Endo-M N175Q 2.5 mU, Endo-Si enzyme 10 μg, 23° C., pH 7.5

Point of comparison: B3, Transglycosylation rate 77.5%. Against it:
- B1 — higher, 93.3%
- B2 — higher, 96.8%
- B4 — higher, 98.7%
- B5 — lower, 76.3%
- B6 — higher, 92.5%
- B7 — higher, 98.5%
- B8 — higher, 98.5%
- B9 — higher, 97.0%
